These results are taken from the supplement of paper PMC10724198.

± gives the standard deviation of the averaged measurements.

The series deals with Saccharomyces cerevisiae. As to the kind of experiment: protein stability index of tFT-peptide fusion (C-terminal peptide) (PSI (0-1 scale)); higher = more stable (slower turnover). The settings on record: temperature: 30 C. On the procedure:
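MPS profiling in S. cerevisiae of the yeast C-terminome library: the last 12 aa of each annotated ORF are fused to the C-terminus of a sfGFP-mCherry timer, after a GGGS linker. Cells are FACS-sorted into 8 mCherry/sfGFP bins and deep-sequenced. PSI runs from 0 (unstable) to 1 (stable); wild type and das1Δ backgrounds, two technical replicates each.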

Setting [1] is: genetic background: das1 deletion.

As to LKQLDNLKSQLN [ARG4 C-terminal 12 aa], the protein stability index reads like this: under setting [1], 0.7 ± 0.013; (genetic background: wild type) 0.6755 ± 0.0019.
For LLNSRATQDVVC [VMA3 C-terminal 12 aa], the protein stability index was 0.6342 ± 0.0054 under setting [1] and 0.66 ± 0.0053 (genetic background: wild type).
For LLQSGRYGGNRS [RCI37 C-terminal 12 aa] the same measures were 0.683 ± 0.011 and 0.663 ± 0.021.
For the sequence LLSVDGWRTDQL [QRI7 C-terminal 12 aa], the protein stability index runs as follows: under setting [1], 0.721 ± 0.014; (genetic background: wild type) 0.758 ± 0.031.
For LMGAALAAVIFL [FIT1 C-terminal 12 aa] the same measures were 0.672 ± 0.018 and 0.668 ± 0.026.
Regarding LNFYNDNFGSQF [STP1 C-terminal 12 aa], the protein stability index stood at 0.723 ± 0.0098 under setting [1] and 0.71 ± 0.048 (genetic background: wild type).
For the sequence LNKEALKHNMLK [HSH49 C-terminal 12 aa], the protein stability index runs as follows: under setting [1], 0.691 ± 0.048; (genetic background: wild type) 0.695 ± 0.092.
Regarding LNKKSSVKILLY [CMS1 C-terminal 12 aa], the protein stability index is, setting by setting: under setting [1], 0.693 ± 0.01; (genetic background: wild type) 0.614 ± 0.0071.
Turning to LNWLIKGILTED [HFI1 C-terminal 12 aa], the protein stability index by setting is: under setting [1], 0.753 ± 0.033; (genetic background: wild type) 0.675 ± 0.039.
With LPSERSRLSYTN [CBP3 C-terminal 12 aa], the protein stability index is 0.703 ± 0.026 under setting [1] and 0.696 ± 0.071 (genetic background: wild type).
The corresponding values for “LPSPRFFSPITL [YER158W-A C-terminal 12 aa]” are 0.685 ± 0.024 and 0.702 ± 0.008.
For LQFILPSMNLAN [GPB1 C-terminal 12 aa] the same measures were 0.692 ± 0.0087 and 0.656 ± 0.015.
With LQKFYLQVSTIS [YFR054C C-terminal 12 aa], the protein stability index under setting [1] amounted to 0.456 ± 0.0082 and the protein stability index (genetic background: wild type) came out at 0.456 ± 0.0082.
Regarding LQPMEAFKYDRS [BIO2 C-terminal 12 aa], the protein stability index came out at 0.71 ± 0.0075 under setting [1] and 0.731 ± 0.046 (genetic background: wild type).
The corresponding values for LRASGDDSDPAY [PFA5 C-terminal 12 aa] are 0.7076 ± 0.0054 and 0.687 ± 0.014.
In the case of LRKKQVKKKVKS [SLX8 C-terminal 12 aa], the protein stability index is, setting by setting: under setting [1], 0.6885 ± 0.0062; (genetic background: wild type) 0.716 ± 0.061.
The corresponding values for LRRFIICQLHLI [YBR027C C-terminal 12 aa] are 0.523 ± 0.02 and 0.139 ± 0.0035.
The corresponding values for LRYYVSKLINFK [YNL324W C-terminal 12 aa] are 0.70435 ± 0.00064 and 0.6889 ± 0.00073.
The corresponding values for LSDSHYELNAES [PMT5 C-terminal 12 aa] are 0.712 ± 0.033 and 0.706 ± 0.044.
Sequence LSKDGIYTAIPK [PAU15 C-terminal 12 aa] returned a protein stability index under setting [1] of 0.685 ± 0.025 and a protein stability index (genetic background: wild type) of 0.767 ± 0.12.
In turn, LSRVGELYLSTD [SEC7 C-terminal 12 aa] yielded a protein stability index under setting [1] of 0.683 ± 0.02 and a protein stability index (genetic background: wild type) of 0.692 ± 0.038.
The sequence LSVEEDRDVQMT [APC5 C-terminal 12 aa] returned a protein stability index under setting [1] of 0.684 ± 0.013 and a protein stability index (genetic background: wild type) of 0.729 ± 0.054.
The corresponding values for LVDIITGASSLG [ATP3 C-terminal 12 aa] are 0.6894 ± 0.004 and 0.719 ± 0.041.
The corresponding values for LVVARDMLLASL [SPC25 C-terminal 12 aa] are 0.6474 ± 0.0048 and 0.624 ± 0.024.
For LVYENVRVPRYL [IFM1 C-terminal 12 aa] the same measures were 0.697 ± 0.015 and 0.6639 ± 0.0064.
As to LWNLSDNCKNTV [MMS1 C-terminal 12 aa], the protein stability index is, setting by setting: under setting [1], 0.707 ± 0.02; (genetic background: wild type) 0.7014 ± 0.0061.
The corresponding values for LYAQLRENGLVP [SNU114 C-terminal 12 aa] are 0.695 ± 0.035 and 0.683 ± 0.038.
The corresponding values for MAEKQIASEFNY [DBP7 C-terminal 12 aa] are 0.721 ± 0.012 and 0.662 ± 0.0067.
For MAQNYVIDRMGL [MTC1 C-terminal 12 aa] the same measures were 0.707 ± 0.027 and 0.68 ± 0.037.
Take MEKSDRYIQETW [TAH18 C-terminal 12 aa]: the protein stability index was 0.7032 ± 0.0048 under setting [1] and 0.691 ± 0.009 (genetic background: wild type).
MERELIKEEYDN [PAA1 C-terminal 12 aa]: the protein stability index runs as follows: under setting [1], 0.702 ± 0.025; (genetic background: wild type) 0.67 ± 0.031.
As for MERLQKGWSLAK [MDY2 C-terminal 12 aa], the protein stability index is, setting by setting: under setting [1], 0.71 ± 0.043; (genetic background: wild type) 0.684 ± 0.02.
For MFGKLGRYLYSH [NSG2 C-terminal 12 aa] the same measures were 0.75552 ± 0.00052 and 0.211 ± 0.04.
Consider MFNQGKVEEMDF [SML1 C-terminal 12 aa], for which the protein stability index runs as follows: under setting [1], 0.7189 ± 0.0047; (genetic background: wild type) 0.692 ± 0.017.
Turning to MGIRLRYNVEPK [RPA135 C-terminal 12 aa], the protein stability index by setting is: under setting [1], 0.735 ± 0.041; (genetic background: wild type) 0.663 ± 0.014.
The corresponding values for MKFNVISFLFHK [NAM2 C-terminal 12 aa] are 0.688 ± 0.011 and 0.615 ± 0.011.
For the sequence MKQLEKAGVRFE [FMP33 C-terminal 12 aa], the protein stability index is, setting by setting: under setting [1], 0.6871 ± 0.0014; (genetic background: wild type) 0.686 ± 0.014.
The corresponding values for MLGVGSLLFLAF [ROT1 C-terminal 12 aa] are 0.698 ± 0.03 and 0.691 ± 0.026.
The corresponding values for MLYTSYQSIFGV [AVT4 C-terminal 12 aa] are 0.707 ± 0.015 and 0.706 ± 0.0086.
Sequence MNSAMNVQPTGF [CHC1 C-terminal 12 aa] registered a protein stability index under setting [1] of 0.6951 ± 0.0016 and a protein stability index (genetic background: wild type) of 0.662 ± 0.033.
The corresponding values for “MTQWLEISILMN [YCL001W-A C-terminal 12 aa]” are 0.544 ± 0.05 and 0.319 ± 0.034.
The corresponding values for MVGVLFFWVWIT [BET1 C-terminal 12 aa] are 0.201 ± 0.0064 and 0.123 ± 0.018.
For NAPRFGVEYQMT [PHO89 C-terminal 12 aa] the same measures were 0.72259 ± 0.00055 and 0.67 ± 0.017.
In the case of NCANCVYFSSRG [YDL221W C-terminal 12 aa], the protein stability index reads like this: under setting [1], 0.7169 ± 0.0029; (genetic background: wild type) 0.716 ± 0.043.
As for NDAQKRAIDENF [SIS1 C-terminal 12 aa], the protein stability index reads like this: under setting [1], 0.687 ± 0.016; (genetic background: wild type) 0.683 ± 0.0076.
“NDQNKNKQNAKR [YIL156W-A C-terminal 12 aa]”: the protein stability index amounted to 0.7078 ± 0.0055 under setting [1] and 0.639 ± 0.011 (genetic background: wild type).
Consider NDTIFKLKVFKL [ILS1 C-terminal 12 aa], for which the protein stability index under setting [1] was 0.7346 ± 0.001 and the protein stability index (genetic background: wild type) was 0.759 ± 0.099.
For NEDDYLAVKYVL [FES1 C-terminal 12 aa] the same measures were 0.687 ± 0.018 and 0.696 ± 0.044.
With NEGSEEEPEIDQ [BDP1 C-terminal 12 aa], the protein stability index by setting is: under setting [1], 0.6878 ± 0.0019; (genetic background: wild type) 0.702 ± 0.037.
For the sequence NEKGNDDSDAKK [ILM1 C-terminal 12 aa], the protein stability index was 0.695 ± 0.041 under setting [1] and 0.685 ± 0.029 (genetic background: wild type).
The corresponding values for NEKRNEPKPSTN [YTA12 C-terminal 12 aa] are 0.6938 ± 0.0025 and 0.656 ± 0.017.
For NEMRERLRALQN [VPS24 C-terminal 12 aa] the same measures were 0.668 ± 0.011 and 0.685 ± 0.054.
Turning to NENKKANGNNCC [YPT31 C-terminal 12 aa], the protein stability index runs as follows: under setting [1], 0.705 ± 0.017; (genetic background: wild type) 0.652 ± 0.036.
The corresponding values for NHFHYDCVYRYC [YOR333C C-terminal 12 aa] are 0.6939 ± 0.0038 and 0.404 ± 0.03.
For NIKSSTLPGLSI [PFS2 C-terminal 12 aa], the protein stability index reads like this: under setting [1], 0.694 ± 0.02; (genetic background: wild type) 0.664 ± 0.029.
For NKYMNEMLEYMQ [NUF2 C-terminal 12 aa] the same measures were 0.715 ± 0.0072 and 0.719 ± 0.085.
With NLAGRKNSRDNE [LOT5 C-terminal 12 aa], the protein stability index under setting [1] amounted to 0.681 ± 0.017 and the protein stability index (genetic background: wild type) stood at 0.6772 ± 0.0027.
NLDNLFMASSLI [AIM6 C-terminal 12 aa]: the protein stability index reads like this: under setting [1], 0.7128 ± 0.0018; (genetic background: wild type) 0.658 ± 0.033.
Consider NMGGWVLGGNAR [SND1 C-terminal 12 aa], for which the protein stability index is 0.721 ± 0.023 under setting [1] and 0.6926 ± 0.0057 (genetic background: wild type).
NNGSSNNNTQNT [SNF5 C-terminal 12 aa]: the protein stability index was 0.67 ± 0.014 under setting [1] and 0.673 ± 0.022 (genetic background: wild type).
The corresponding values for NNLHSYEKRLHN [YAR075W C-terminal 12 aa] are 0.69 ± 0.019 and 0.7 ± 0.015.
For NNQPHYRDQLLQ [REI1 C-terminal 12 aa] the same measures were 0.6976 ± 0.0028 and 0.706 ± 0.048.
For NNVDVSWVDKLV [STB5 C-terminal 12 aa] the same measures were 0.712 ± 0.013 and 0.714 ± 0.046.
NPAARLDEDLYE [FRS2 C-terminal 12 aa]: the protein stability index by setting is: under setting [1], 0.662 ± 0.053; (genetic background: wild type) 0.707 ± 0.022.
Turning to NQKNEDLSDIKL [UTP30 C-terminal 12 aa], the protein stability index reads like this: under setting [1], 0.658 ± 0.019; (genetic background: wild type) 0.755 ± 0.13.
The corresponding values for NQTSFSRDRLRR [RRD1 C-terminal 12 aa] are 0.702 ± 0.013 and 0.722 ± 0.066.
The corresponding values for NRAKGKVVVKMK [YIM1 C-terminal 12 aa] are 0.69 ± 0.022 and 0.6976 ± 0.0037.
The corresponding values for NRRNNGYHPYNR [HRP1 C-terminal 12 aa] are 0.688 ± 0.019 and 0.6645 ± 0.0011.
